Source: US20020142457A1, “Cell having the potentiality of differentiation into cardiomyocytes” (priority 1999, published 2002)
Ends that are not written are not given here.

B1: midkine: cytokine, amino acid sequence SEQ ID NO:68 (protein, listed as Homo sapiens)
chain: MQHRGFLLLTLLALLALTSAVAKKKDKVKKGGPGSECAEWAWGPCTPSSKDCGVGFREGTCGAQTQRIRCRVPCNWKKEFGADCKYKFENWGACDGGTGTKVRQGTLKKARYNAQCQETIRVTKPCTPKTKAKAKAKKGKGKD
modifications: CDS (1)..(432)
B2: FGF-8: fibroblast growth factor 8, cytokine (protein, UniProt P55075 23-233, looked up)
Fibroblast growth factor 8: QEGPGRGPALGRELASLFRAGREPQGVSQQHVREQSLVTDQLSRRLIRTYQLYSRTSGKHVQVLANKRINAMAEDGDPFAKLIVETDTFGSRVRVRGAETGLYICMNKKGKLIAKSNGKGKDCVFTEIVLENNYTALQNAKYEGWYMAFTRKGRPRKGSKTRQHQREVHFMKRLPRGHHTTEQSLRFEFLNYPPFTRSLRGSQRTWAPEPR
B3: BMP4: bone morphogenic protein 4, cytokine (protein, UniProt P12644 293-408, looked up)
Bone morphogenetic protein 4: SPKHHSQRARKKNKNCRRHSLYVDFSDVGWNDWIVAPPGYQAFYCHGDCPFPLADHLNSTNHAIVQTLVNSVNSSIPKACCVPTELSAISMLYLDEYDKVVLKNYQEMVVEGCGCR

Experiments:
[1] = tested on: mouse bone marrow-derived pluripotent stem cells (BMSC); experiment: Differentiation of BMSC into myotubes, phase-contrast microscope; format: cell-based; details: 5-aza-C 3 μM in all dishes, cytokine 10 ng/ml, four weeks after addition of 5-aza-C
Description: The mouse bone marrow-derived pluripotent stem cells (BMSC) having the potential to differentiate into cardiomyocytes were plated into 60-mm culture dishes and 60 mm fibronectin-coated dishes (Becton Dickinson) at a density of 2×10^4 cells/ml and cultured at 33° C. in a 5% CO2-incubator.
On the next day, 5-aza-C was added to each culture medium in a final concentration of 3 μM, followed by culturing with the following 3 different treatments, with addition of PDGF (culture dish A), both PDGF and retinoic acid (culture dish B) or without addition of any compound (culture dish C) (final concentration: PDGF, 10 ng/ml; retinoic acid, 10^−9 M).
On the next day, the medium was replaced with a fresh medium to remove 5-aza-C therefrom. Then, PDGF was added to the culture dish A until the final concentration of PDGF came to be 10 ng/ml, while PDGF and retinoic acid were added to the culture dish B until the final concentrations of PDGF and retinoic acid came to be 10 ng/ml and 10^−9 M, respectively. Two and four days thereafter, the medium was replaced and the PDGF or retinoic acid was further added.
As a result, about 30% of the cells in the culture dish containing 5-aza-C alone differentiated into myotubes, while about 40% of the cells in the culture dish containing PDGF and about 50% of the cells in the culture dish containing PDGF together with retinoic acid differentiated into myotubes. In the three groups of the fibronectin-coated dishes, the ratio of the cells differentiated into myotubes was about 10% higher than in the three groups of the culture dishes.
(§1) RNAs were collected from the myotubes thus obtained. And genes expressed in the myotubes were analyzed with quantitative PCR analysis using the synthetic oligonucleotides represented by SEQ ID NOS:71 to 78. As a result, PDGF or retinoic acid promoted the expression of MyoD and fTnI genes relating to a skeletal muscle but not cTnI or ANP specifically relating to a myocardium. Next, mouse bone marrow-derived pluripotent stem cells (BMSC) having the potential to differentiate into cardiomyocytes were inoculated in a 60-mm culture dish at a density of 2×10^4 cells/ml and cultured using an incubator at 33° C. under 5% of CO2.
On the next day, 5-aza-C was added to the liquid culture medium to give a final concentration of 3 μM. Furthermore, five treatments differing from each other were performed by adding FGF-8 to give a final concentration of 10 ng/ml (culture dish D); adding ET-1 to give a final concentration of 10 ng/ml (culture dish E); adding a midkine to give a final concentration of 10 ng/ml (Culture dish F); adding BMP4 to give a final concentration of 10 ng/ml (culture dish G); and adding no compound (culture dish H), followed by culturing.
On the next day, the medium was replaced by a fresh medium to eliminate 5-aza-C therefrom. Then, FGF-8 was added to the culture dish D to give a final concentration of 10 ng/ml; ET-1 was added to the culture dish E to give a final concentration of 10 ng/ml; the midkine was added to the culture dish F to give a final concentration of 10 ng/ml; and BMP4 was added to the culture dish G to give a final concentration of 10 ng/ml, followed by culturing. Two and four days thereafter, the medium was replaced and the FGF-8, ET-1, midkine or BMP4 was further added.
As a result, about 30% of the cells in the culture dish containing 5-aza-C alone differentiated into myotubes, while about 50% of the cells in the culture dishes containing FGF-8, ET-1, midkine or BMP4 differentiated into myotubes respectively.

[2] = tested on: mouse bone marrow-derived pluripotent stem cells (BMSC); experiment: Quantitative PCR of genes expressed in myotubes from BMSC; format: cell-based; details: with 5-aza-C 3 μM, cytokine 10 ng/ml
Description: as §1
RNAs were collected from the myotubes thus obtained. And genes expressed in the myotubes were analyzed with quantitative PCR using the synthetic oligonucleotides represented by SEQ ID NOS:71 to 78. As a result, the FGF-8, ET-1, midkine and BMP4 each individually promoted the expression of cTnI and ANP gene which are myocardium-specific genes.

[3] = tested on: bone marrow cell (BMSC-MesP1); experiment: Differentiation of BMSC-MesP1 with cytokines, phase contrast microscope; format: cell-based, mouse; details: BMSC-MesP1, 5-aza-C 3 μM; cytokine 10 ng/ml; four weeks
Description: A mouse bone marrow-derived pluripotent stem cell (BMSC-MesP1) having the potential to differentiate into cardiomyocytes in which the MesP1 gene was forced-expressed was obtained using a retrovirus vector in the same manner as in Example 6, and then the differentiation was induced to examine efficiency of differentiation into cardiomyocytes.
The bone marrow cell (BMSC-MesP1) having the potential to differentiate into cardiomyocytes in which MesP1 was forced expressed was plated into a 60-mm culture dish in a density of 2×10^4 cells/ml and cultured at 33° C. in a 5% CO2-incubator. On the next day, 5-aza-C was added to the culture medium to give a final concentration of 3 μM, followed by culturing under five different conditions, namely (i) addition of FGF-8 to give a final concentration of 10 ng/ml (culture dish N), (ii) addition of ET-1 to give a final concentration of 10 ng/ml (culture dish P), (iii) addition of Midkine to give a final concentration of 10 ng/ml (culture dish Q), (iv) addition of BMP4 to give a final concentration of 10 ng/ml (culture dish R), and (v) no addition (culture dish S).
On the next day, the medium was exchanged with a fresh medium in order to eliminate 5-aza-C from the medium, and then the culturing was continued by adding FGF-8 to the culture dish N to give a final concentration of 10 ng/ml, ET-1 to the culture dish P to give a final concentration of 10 ng/ml, Midkine to the culture dish Q to give a final concentration of 10 ng/ml and BMP4 to the culture dish R to give a final concentration of 10 ng/ml. Two days and 4 days thereafter, the medium exchange and addition of FGF-8, ET-1, Midkine or BMP4 were carried out similarly.
Four weeks after the addition of 5-aza-C, morphology of the cells was observed under a phase contrast microscope. As a result, the number of myotube-like cells was not changed greatly by the forced expression of MesP1. In addition, about 50% of the cells became myotube-like cells in the culture dish to which FGF-8, ET-1, Midkine or BMP4 had been added.

| Molecule | cells differentiated into myotubes [1] | expression of cTnI and ANP gene (myocardium-specific genes) [2] | cells became myotube-like cells [3] |
| --- | --- | --- | --- |
| ET-1: endothelin 1, cytokine (CSCSSLMDKECVYFCHLDIIW; ends and bridges not checked; cysteine pairing not given here; UniProt P05305 53-73, looked up) | about 50% | promoted | about 50% |
| B1 | about 50% | promoted | about 50% |
| B2 | about 50% | promoted | about 50% |
| B3 | about 50% | promoted | about 50% |
